Data published in US20160271157A1, “BETA-CATENIN” (UCL BUSINESS PLC, priority 2013, published 2016).

How the values were obtained:
[1] = test system: MCF7 breast cancer cell line; experiment: Live [Ca2+]i imaging after addition of Wnt ligand, MCF7; assay type: cell-based, human; details: MCF7 cells
Method: The imaging protocol was developed in the inventor's laboratory and has been described in detail, elsewhere (Wang at al., (2010) PLoS ONE 5, e10456). Briefly, 100000-200000 PC3, MCF7, 253J or Cos 7 cells were plated on 35 mm FluoroDish (WPI) and grown for 48 h; calcium indicators Fluo-4 (Invitrogen) and FuraRed (Invitrogen) at 1 ng/ml were added to FluoroDish containing only 1 ml of culture medium and incubated for 15-20 min at 37° C. The culture medium was removed and washed (×2) and replaced with 1 ml PBS. Live cell calcium Imaging was performed on an Olympus FluoView FV 1000 confocal microscope (Olympus […]) equipped with a 20× dry objective (numerical aperture=0.75). Calcium indicators were excited with an argon laser line (488 nm) and emissions recorded in the green channel (500-560 nm) for Fluo-4 and red channel (600-700 nm) for FuraRed after addition of vehicle control (PBS) or Wnt X (30-600 ng/ml). Images were acquired every 1.1 or 2.2 seconds for up to 600-800s; image and data acquisition was performed using FluoView 1000 software (Olympus, UK). Fluorescent intensity was measured and data exported as a tab delimited file for further analysis using a spreadsheet. All imaging experiments were performed in duplicate; intracellular calcium at 100 ng/ml was measured in at least 3-12 different passages (passage numbers 25 to 37) of cell line for each Wnt ligand. Wnt 11 was tested in at least 5 different passages at 3 different concentrations. […] The measurements were exported as a tab delimited file into a spreadsheet for further analysis and Fluo4/Fura Red ratios were calculated. […] The time constants (rise, dwell and fall times) were calculated by first fitting the Fluo4/FuraRed ratio to a single Gaussian function (Origin Lab Corp., MA); a lower (10%) and upper (90%) amplitude thresholding method was then used to calculate the time constants (s). Statistical significance was calculated using Mann Whitney U test.

[2] = test system: β-catenin translocation to the nucleus; experiment: β-catenin immunocytochemistry, MCF7; assay type: cell-based, human; details: MCF7 breast cancer cell line
Method: Immunostaining was performed in two different laboratories, independently with the experimenter blind to the identity of the treatment. Either cells used in FluoroDish, post [Ca^2+]i experiments using dyes (see above) or grown in 8 well chamber glass slides (Lab Tek II, Nunc) were used. For Wnt ligand treatment, the culture medium replaced with PBS (without calcium) at 37° C. The experiments were replicated for Wnt ligand or vehicle control as described for [Ca^2+]i measurements. Briefly, Wnt ligands were added and chamber slides incubated at 37° C. for up to 20 min. Chamber wells were washed 3× with 0.5 ml PBS and cells were fixed with 0.5 ml 4% formalin for 30 min at 4° C. Cells were washed 3× with ice cold PBS and stored in 0.5 ml PBS at 4° C. for immunostaining. In some experiments PC3 cells were treated with thaspsigargin as described above.
For immunostaining cells were washed twice for 5 minutes in TBST (20 mM Tris pH 7.4, 0.9% NaCl, 0.1% Tween 20, Sigma). Cells were then incubated in 20% normal goat serum (NGS)/TBST for 30 min at room temperature, the chambers were drained and cells were incubated with mouse anti-β-catenin (ab22656, Abcam, UK) at 1:500 dilution in NGS/TBST overnight at 4° C. […]
Fluorescence immunocytochemical staining for β-catenin expression in cell lines was imaged using Olympus Fluoview 1000 Confocal Microscope (Olympus KeyMed) mounted on an Olympus IX81 inverted microscope using a 20×0.7 NA or 40×1.0 NA dry objective with a zoom of ×3.4′,6-diamidino-2-phenylindole (DAPI, nuclear counterstain) was excited at 405 nm with an emission of 415-500 nm; Cy3 (β-catenin label) signal was excited at 561 nm with an emission spectrum between 570-670 nm. […]
Nuclear co-localization of β-catenin was calculated by importing FV files for untreated, control or treated cells, into colocalization plugin of Fiji software (http://fiji.sc/Fiji) for Cy3 (β-catenin) and DAPI (nuclear) signals. […] Statistical significance between untreated and treated cells was calculated using Mann Whitney U test.

Molecule	[Ca2+]i release in response to Wnt ligand [1]	β-catenin translocation into the nucleus after Wnt treatment [2]
Wnt10B: Recombinant Wnt peptide purchased from R&D systems	activated [Ca^2+]i release	β-catenin translocation into the nucleus
Wnt5A: Recombinant Wnt peptide purchased from R&D systems (protein, UniProt P41221 62-380, looked up) Protein Wnt-5a: IIGAQPLCSQLAGLSQGQKKLCHLYQDHMQYIGEGAKTGIKECQYQFRHRRWNCSTVDNTSVFGRVMQIGSRETAFTYAVSAAGVVNAMSRACREGELSTCGCSRAARPKDLPRDWLWGGCGDNIDYGYRFAKEFVDARERERIHAKGSYESARILMNLHNNEAGRRTVYNLADVACKCHGVSGSCSLKTCWLQLADFRKVGDALKEKYDSAAAMRLNSRGKLVQVNSRFNSPTTQDLVYIDPSPDYCVRNESTGSLGTQGRLCNKTSEGMDGCELMCCGRGYDQFKTVQTERCHCKFHWCCYVKCKKCTEIVDQFVCK	activated [Ca^2+]i release	β-catenin translocation into the nucleus
Wnt9B: Recombinant Wnt peptide purchased from R&D systems (protein, UniProt O14905 23-357, looked up) Protein Wnt-9b: SYFGLTGREVLTPFPGLGTAAAPAQGGAHLKQCDLLKLSRRQKQLCRREPGLAETLRDAAHLGLLECQFQFRHERWNCSLEGRMGLLKRGFKETAFLYAVSSAALTHTLARACSAGRMERCTCDDSPGLESRQAWQWGVCGDNLKYSTKFLSNFLGSKRGNKDLRARADAHNTHVGIKAVKSGLRTTCKCHGVSGSCAVRTCWKQLSPFRETGQVLKLRYDSAVKVSSATNEALGRLELWAPARQGSLTKGLAPRSGDLVYMEDSPSFCRPSKYSPGTAGRVCSREASCSSLCCGRGYDTQSRLVAFSCHCQVQWCCYVECQQCVQEELVYTCKH	activated [Ca^2+]i release	β-catenin translocation into the nucleus
